# Experiment: soluble on expression in E. coli; label from the status in PepcDB or PDB records
row,Sequence,soluble on expression in E. coli
1,MDTMRQRILVVDDDASLAEMLTIVLRGEGFDTAVIGDGTQALTAVRELRPDLVLLDLMLPGMNGIDVCRVLRADSGVPIVMLTAKTDTVDVVLGLESGADDYIMKPFKPKELVARVRARLRRNDDEPAEMLSIADVEIDVPAHKVTRNGEQISLTPLEFDLLVALARKPRQVFTRDVLLEQVWGYRHPADTRLVNVHVQRLRAKVEKDPENPTVVLTVRGVGYKAGPPTSGSHHHHHH,soluble
2,MDVHIDNQVLSGLGTPLLVHLFVPDTVMAELCPNRVPNCEGAWCQTLFSDRTGLTRVCRVFAARGMLPGRPSHRGTFTSVPVYCDEGLPELYNPFHVAALRFYDEGGLVGELQIYYLSLFEGAKRALTDGHLIREASGVQESAAAMQPIPIDPGPPGGAGIEHMPVAAAQVEHPKTYDLKQILLEITQEENRGEQRLGHAGSPALCLGLRLRAGAETKAAAETSVSKHHPALENPSNIRGSAGGEGGGGRAGTGGTVGVGSGALSRVPVSFSKTRRAIRESRALVRGIAHIFSPHALYVVTYPELSAQGRLHRMTAVTHASPATDLAEVSILGAPEREFRFLISVALRISASFREKLAMQAWTAQQEIPVVIPTSYSRIYKNSDLIREAFFTVQTRVSWESCWVKATISNAPKTPDACLWIDSHPLYEEGASAWGKVIDSRPPGGLVGAASQLVALGTDGHCVHLATTSDGQAFLVLPGGFVIKGQLALTPEERGYILARHGIRREQ,not soluble
3,MDVIKIGDIVARKSYQCDLLFRVIDIKEKNGEWEAILYGEDVRLVADAPCSDLVVIDEQEQQERKKREIELLEQSYRLFRQDYQAIKQKVEYRATGGYRVEKDFFQIPGRVLHLDGDPLYLRKCMDLYERIGVPVHGIYCEESEMPEKVGYWIEQFRPDILVITGHDSYSKSKGKVHELKAYRHSRHFVQTVKEARKKVPHLDQLIIFAGACQSHFESLIRAGANFASSPARVNIHALDPVYIVSRLSFTPFTETVDVWDVLRNTLTGEKGLGGVETKGVLRTGMPFRLIEDREENRRS,not soluble
4,MDVKPDRVIDARGSYCPGPLMELIKAYKQAKVGEVISVYSTDAGTKKDAPAWIQKSGQELVGVFDRNGYYEIVMKKVK,soluble
5,MDVPTAISIERVVKEMKSLEITLHITPTGPSVGFANINGFNFQFIVLPSVLIARADRYLSETKSDPRIYLASNEVNNRTVRGGIFVVDNSAAPIMRAEVDICSAAGLTDSQLHMCLSNSVNDVLDLQHSWAKATAI,not soluble
6,MDVQIFPHRLLGADTTEKLLNRLEDISGVKRMVIHGQRLPPEDHPDRRIISVKGHEFELQVKTGRVLLEIEDEDTIADIKRVCEDLLPFGYDVTPGKYIRTQKTVTDEIKYGEDLDKVPEELIGLTDQNARLSERATIIKRKKEHLEHHHHHH,soluble
7,MDVRSAPSNHATAVPTAQPSAPSIKSTLSKLFRAQCSDPVPLSSSSSTERIAPPRVTANYSAVVDISKTASHSKTNADTAEKNSFSWLKNKLSTVSENQQKKQAIQNFIAQVSQQYNVEEDVAKLAVAASGAYRQLRFEETQQQRVHACLQDTEALTAMIDLATRKPLTYKMVMGLDSSDCSFDPIARISDHDILTEAEQCQVVRSAFASADKVCVVTSYGIKPLGAPKSDALSPTIASVLQGFASKQHDKDFTGVFFYQKSDAIQNYYTEDKRTNISIKENDWAKAVTLFNAAVERGEIEGPKEGLK,not soluble
8,MDVSFEFEHYQVRLIKSSDAVTIANYFMRNRHHLAPWEPKRSHAFFTPEGWKQRLLQLVELHKHNLAFYFVVVDKNEHKIIGTVSYSNITRFPFHAGHVGYSLDSEYQGKGIMRRAVNVTIDWMFKAQNLHRIMAAYIPRNEKSAKVLAALGFVKEGEAKKYLYINGAWEDHILTSKINDDWKP,soluble
9,MDVSLPCIKIQVQTRYIEEQSNPEYQRFVFAYLITIKNLSSQTVQLMSRRWLITDADGKQTVVEGDGVVGEQPRIKANDEYTYSSGTALDTPVGVMQGQYLMIDEQGESFTVEIEPFRLAVPHVLNLEHHHHHH,soluble
10,MDWMPLGDYETFRHWSGKPRAWGPQESGWRAWFGGKIVDGLCEVLDEHLAVRRRGVPAAIGCVPWLSSEAVAETLLALSVFCVVIDKGTSFPSRLRNPDKGFPNVALLRLRDMAPSEHGSRCSSARGRLCLSMS,not soluble
11,MDYKFPKDFMFGTSTASYQIEGGWNEDGKGENIWDRLVHTSPEVIKDGTNGDIACDSYHKYKEDVAIIKDLNLKFYRFSISWARIAPSGVMNSLEPKGIAYYNNLINELIKNDIIPLVTMYHWDLPQYLQDLGGWVNPIMSDYFKEYARVLFTYFGDRVKWWITFNEPIAVCKGYSIKAYAPNLNLKTTGHYLAGHTQLIAHGKAYRLYEEMFKPTQNGKISISISGVFFMPKNAESDDDIETAERANQFERGWFGHPVYKGDYPPIMKKWVDQKSKEEGLPWSKLPKFTKDEIKLLKGTADFYALNHYSSRLVTFGSDPNPNFNPDASYVTSVDEAWLKPNETPYIIPVPEGLRKLLIWLKNEYGNPQLLITENGYGDDGQLDDFEKISYLKNYLNATLQAMYEDKCNVIGYTVWSLLDNFEWFYGYSIHFGLVKIDFNDPQRTRTKRESYTYFKNVVSTGKP,soluble
12,MDYKVSRSGEIVEGEVEDSEKIDLPPGFRFHPTDEELITHYLRPKVVNSFFSAIAIGEVDLNKVEPWDLPWKAKLGEKEWYFFCVRDRKYPTGLRTNRATKAGYWKATGKDKEIFKGKSLVGMKKTLVFYKGRAPKGVKTNWVMHEYRLEGKFAIDNLSKTAKNECVISRVFHTRTDGTKEHMSVGLPPLMDSSPYLKSRGQDSLAGTTLGGLLSHVTYFSDQTTDDKSLVADFKTTMFGSGSTNFLPNIGSLLDFDPLFLQNNSSVLKMLLDNEETQFKKNLHNSGSSESELTASSWQGHNSYGSTGPVNLDCVWKF,soluble
13,MDYLTTNKIAWDARTRVHLTSDFYDVEGFLSGKISLTEIELNELAVAGKSLLHLQCHFGLDTLSWARMGAKVTGVDLSEVAIAEACKLAQQTQLSAEFICSDVYSVVGKVEPQDIVFTSYGAIVWLPDLTLWAQTIAACLKPGGQFYMAEFHPAQQLFDGYSYFNRGEPDIEQEGTYTENASDDQQTLMCWSHSLSEVINALLQAGLELVFFHEFAFSPYNCFEGLEAQADGRYVLIHQGQQVPLVYSISARKPVLEHHHHHH,soluble
14,MDYLVKALAYDGKVRAYAARTTDMVNEGQRRHGTWPTASAALGRTMTASLMLGAMLKGDDKLTVKIEGGGPIGAIVADANAKGEVRAYVSNPQVHFDLNEQGKLDVRRAVGTNGTLSVVKDLGLREFFTGQVEIVSGELGDDFTYYLVSSEQVPSSVGVGVLVNPDNTILAAGGFIIQLMPGTDDETITKIEQRLSQVEPISKLIQKGLTPEEILEEVLGEKPEILETMPVRFHCPCSKERFETAILGLGKKEIQDMIEEDGQAEAVCHFCNEKYLFTKEELEGLRDQTTR,soluble
15,MDYQQDEYDEPFRIHLNLDNLTEDEAKARFSLIYDQHAQTMKRRETNDYLRPICIDGTDVSNKLNHIIRKNMDLFPVDKSIFNMRAITMALWYFISRGHAAVVFLPTNLRDFAQKCSDPHELSLLAKLELIVFDESTALNPSSAVLLSKTVATWAQNNDGCIVGSRKKYGLLGQRYSELIDRVTNTLISPAFTPDNELEICDLVRLVLAADEVRRNDENSNCMGYQLLASDQVVIMSKLAKMIGKDSMIDLCNRARELNTSTNPNYRNIFNNQKQSTSMGRVYQSPYHFNDPFLPDYVAPPPPIALESVAKPTRIGHRHSIYRVGEDKSTELENGDNRRKAVYRGALIDALQPMFGLEKATALVNGNPDQNEINDLIELGINQ,not soluble
16,MDYTKYLAGRANWIKGSALADVMKKASELQKKGVKLISLAAGDPDPELIPRAVLGEIAKEVLEKEPKSVMYTPANGIPELREELAAFLKKYDHLEVSPENIVITIGGTGALDLLGRVLIDPGDVVITENPSYINTLLAFEQLGAKIEGVPVDNDGMRVDLLEEKIKELKAKGQKVKLIYTIPTGQNPMGVTMSMERRKALLEIASKYDLLIIEDTAYNFMRYEGGDIVPLKALDNEGRVIVAGTLSKVLGTGFRIGWIIAEGEILKKVLMQKQPIDFCAPAISQYIALEYLKRGYFEKYHLEGALLGYKEKRDIMLKALENHLPNAEFTKPIAGMFVMFFLPEGADGISFANELMEREGVVVVPGKPFYTDESGKNAIRLNFSRPSKEEIPIGIKKLAKLYKEKFGE,soluble
17,MEADRKADNGNAGFSLVCHPEERITYRVGNKVICCLDGSRIGIQFETSTAGETYEVYHCVLESKSFLEKMIVLEHTIPFFLPLSDLENDLLFSNAKKFIDNVGDLLQAYVDRKEQVRLIKELFGHQISEIYHSLPYHMIEFSMDDCDCKFVVSLRYGDLLCELPTKVRILVWPMHHLSKKQCTSPGSPAIPVRLPFAEDAFRIQSLPEAYAEIMPNMPNEIRQLFQTSPS,soluble
18,MEAGFKRKVDYLDRPERSEVLSPEDFLQAMPIGKTASILDLGAGTGFLTIPAAKLVDNTVFALDLDAKMLELIESKAKEAGLANVETLEASMDDIPLEANSVDVVLASLVLHEADSLADVLREVSRVVKTGGYFASLEFDTKGTDLKGPPMEIQISAEKLKEELAGFGFEVVKNWQLDEGMYVSIAVKKLEHHHHHH,not soluble
19,MEAGGLPLELWRMILAYLHLPDLGRCSLVCRAWYELILSLDSTRWRQLCLGCTECRHPNWPNQPDVEPESWREAFKQHYLASKTWTKNALDLESSICFSLFRRRRERRTLSVGPGREFDSLGSALAMASLYDRIVLFPGVYEEQGEIILKVPVEIVGQGKLGEVALLASIDQHCSTTRLCNLVFTPAWFSPIMYKTTSGHVQFDNCNFENGHIQVHGPGTCQVKFCTFKNTHIFLHNVPLCVLENCEFVGSENNSVTVEGHPSADKNWAYKYLLGLIKSSPTFLPTEDSD,soluble
20,MEAHNQFLKTFQKERHDMKEAEKDEILLMENSRRFVMFPIKYHEIWAAYKKVEASFWTAEEIELAKDTEDFQKLTDDQKTYIGNLLALSISSDNLVNKYLIENFSAQLQNPEGKSFYGFQIMMENIYSEVYSMMVDAFFKDPKNIPLFKEIANLPEVKHKAAFIERWISNDDSLYAERLVAFAAKEGIFQAGNYASMFWLTDKKIMPGLAMANRNICRDRGAYTDFSCLLFAHLRTKPNPKIIEKIITEAVEIEKEYYSNSLPVEKFGMDLKSIHTYIEFVADGLLQGFGNEKYYNAVNPFEFMEDVATAGKTTFFEKKVSDYQKASDMSKSATPSKEINFDDDF,soluble
21,MEAKLQVGVLGFGTVGSGVIHILEEHQEKISQVTGYHISVKKVLVRDLEKNRRYETKGFELTTNPSDVLDDPEIAVVVEVMGSITTAREYILQALKAGKHVVTANKDLIALHGDELVAVAQANNCDLFYEASVAGGIPILRTIVNSLAADKIQKVMGIVNGTTNFMLTKMTTEKK,not soluble
22,MEALADVGVLASWSPLHKQVEVIDYYPDGRPHHVRATVKILGLVDKEVLEYHWGPDWVCWDADQTFQQHGQHIEYTVKPEGVDRARVRFDITVEPAGPIPGFIVKRASEHVLDAAAKGLQKLIAGAGDQGNAKSLEHHHHHH,not soluble
23,MEALIAYSGRRFARPHYYANAHERDEVDIVPVQMAMHDARAAGTGIDREGFQIVKHTSAVTDFADREQVARIHMREIEELVRAETGADMVHVGAPGLLRFSEKSGRAGSLNNSMPARFAHIDISDRTAQAFGERGANGRPFVRCAAYNVWRAISPPPQDVPLAFCDARSLAPGDLIEADAVFDEPGKPEWSFEGLVVAHNPAHRWYFFPDMRIDEAVLFKTNDSDPARAHHVPHVAFDLPDCPADAPPRVSIEMRATAYWWALEHHHHHH,soluble
24,MEALVVVHKVASEGGRRPKTTVSDESGSHSREKGKSFQVKDSPENNYATGKVDSLERSHFSSSYNQERRQSEEQRR,soluble
